Reference: US20230303694A1 (LAVA THERAPEUTICS N V, published 2023)

Legend:
[1] = target: T1, epidermal growth factor receptor (EGFR) on EGFR-expressing tumor cell lines A-431, HCT-116 and HT-29 (human, UniProt P00533 25-1210); assay: cell-based or functional assay
[2] = target: human Vγ9Vδ2 T cell receptor (TCR) on primary Vγ9Vδ2 T cells (human), Q99603; assay: cell-based or functional assay
[3] = target: T1, epidermal growth factor receptor (EGFR) …; assay: cell-based ELISA on A-431 cells, anti-IgG1-HRP, signal at 450 nm
Description: To this end, tumor cells were first seeded at different concentrations on day −1 to reach a concentration of approximately 50000 cells/well on day 0. […] Bound antibodies were then labelled in a secondary incubation step with anti-IgG1-HRP for one hour at 37° C. The secondary antibody binding was then resolved by the addition of 3,3′,5,5′-Tetramethylbenzidine and the colorimetric change induced by the HRP, followed by the addition of H2SO4 to stop the reaction. The optical density (OD) was then measured in a UV spectrometer at a wavelength of 450 nm.

B1: bispecific VHH 7D12var8-5C8var1-Y105F (bispecific antibody)
chain: EVQLVESGGGSVQPGGSLRLSCAASGRTSRSYGMGWFRQAPGKEREFVSGISWRGDSTGYADSVKGRFTISRDNAKNTVDLQMNSLRAEDTAVYYCAAAAGSAWYGTLYEYDYWGQGTLVTVSSGGGGSEVQLLESGGGSVQPGGSLRLSCAASGRPFSNYAMSWFRQAPGKEREFVSAISWSGGSTSYADSVKGRFTISRDNSKNTLYLQMNSLRAEDTAVYYCAAQFSGADFGFGRLGIRGYEYDYWGQGTQVTVSS
B1 was tested, and the “EC50 cytotoxicity (A431 tumor cell kill, 24 h, with Vγ9Vδ2 T cells)” value [1] was 0.0025 nM and the EC50 degranulation (CD107A+ Vγ9Vδ2 T cells, 4 h, with A431 cells) [2] was 0.011 nM.

B2: 7D12var8-5C8var1(Y105F)-Fc (bispecific antibody, V domains shown)
V domain 1: EVQLVESGGGSVQPGGSLRLSCAASGRTSRSYGMGWFRQAPGKEREFVSGISWRGDSTGYADSVKGRFTISRDNAKNTVDLQMNSLRAEDTAVYYCAAAAGSAWYGTLYEYDYWGQGTLVTVSS
V domain 2: EVQLLESGGGSVQPGGSLRLSCAASGRPFSNYAMSWFRQAPGKEREFVSAISWSGGSTSYADSVKGRFTISRDNSKNTLYLQMNSLRAEDTAVYYCAAQFSGADFGFGRLGIRGYEYDYWGQGTQVTVSS
notes: Heterodimer of two VHH-Fc chains: the anti-EGFR 7D12var8-Fc (hole) and the anti-Vδ2 5C8var1(Y105F)-Fc (knob); The Fc is human IgG1 with L234F/L235E and a modified hinge; also called 7D12var8-5C8var1(Y105F) with Fc region
In the case of B2, the “EC50 (read off the curve)” value [3] is reported as ~2 nM.
